Results taken from patent publication US20030185836A1 (published 2003).

B3: S15 glycoprotein (15 kDa sporozoite surface protein of Cryptosporidium parvum) (other)
chain: SEETSEAAATVDLFAFTLDGGKRIEVAVPNVEDASKRDKYSLVADDKPFYTGANSGTTNGVYRLNENGDLVDKDNTVLLKDAG
modifications: glycosylated (labelled by H. pomatia lectin); glycosyl phosphatidyl inositol anchor predicted at the C-terminal glycine (residue 305 of S60)
notes: Native protein from sporozoites/oocysts, on blots after SDS-PAGE; also called 15 kDa protein band; 15 kDa protein

How the values were obtained:
[1] = molecular target: T1, Canavalia ensiformis lectin (Con A) (Canavalia ensiformis, UniProt P02866 30-281, limits assumed, biotin-conjugated); experiment: lectin Western blot of Triton X-114 fractionated sporozoite proteins
[2] = molecular target: T1, Canavalia ensiformis lectin (Con A); experiment: lectin blot after SDS-PAGE of sporozoite surface proteins
[3] = molecular target: B3; experiment: co-fractionation: Triton X-114 phase separation, isoelectric focusing

B1: S30 (minor sporozoite protein, proteolytic degradation product of S45) (other)
chain: TGEDAEGSQDSSGTEASGSQGSEEEGSEDDGQTSAASQPTTPAQSEGATTETIEATPKEECGTSFVMWFGEGTPAATLKCGAYTIVYAPIKDQTDPAPRYISGEVTSVTFEKSDNTVKIKVNGQDFSTLSANSSSPTENGGSAGQASSR
B1: no binding [1].

B2: S45 glycoprotein (45 kDa sporozoite surface protein of Cryptosporidium parvum) (other)
chain: DVPVEGSSSSSSSSSSSSSSSSSSSSSTSTVAPANKARTGEDAEGSQDSSGTEASGSQGSEEEGSEDDGQTSAASQPTTPAQSEGATTETIEATPKEECGTSFVMWFGEGTPAATLKCGAYTIVYAPIKDQTDPAPRYISGEVTSVTFEKSDNTVKIKVNGQDFSTLSANSSSPTENGGSAGQASSR
modifications: long stretch of serine residues after DVPVEG glycosylated with single residues of alpha N-acetyl galactosamine (first serine only partially); residues 180, 186 and 188 (S60 numbering) thought to be modified lysines
notes: Native protein from sporozoites/oocysts; also called 45 kDa protein; 45 kDa band
B2: no binding [2]; binds [3].

B3: no binding [2].
